Assay results taken from patent US20240270846A1 (published 2024).
Where no end group is shown, it is not given here.

Assays:
[1] = target: T1, biotin-labeled human CD137 fused to human IgG1 Fc fragment (human CD137-Fc) (human, biotin-labeled); experiment: competitive bead ELISA, biotin-human CD137-Fc on beads; free CD3e 62.5 pmol against free Fc 62.5 pmol
T1 construct: also called biotin-human CD137-Fc

[2] = target: T1, biotin-labeled human CD137 fused to …; experiment: competitive bead ELISA, biotin-human CD137-Fc on beads, 100 ng IgG, control competitor free human Fc 62.5 pmol
[3] = target: T1, biotin-labeled human CD137 fused to …; experiment: competitive bead ELISA, biotin-human CD137-Fc on beads, 100 ng IgG, competitor free CD3 epsilon peptide 62.5 pmol
[4] = target: T2, biotin-labeled cynomolgus monkey CD137 fused to human IgG1 Fc fragment (cynomolgus monkey, UniProt Q07011 24-186 (human entry), limits assumed, biotin-labeled); experiment: bead ELISA; RLU on cyno CD137-Fc divided by RLU on human Fc
T2 construct: also called cyno CD137-Fc; not shown: human IgG1 Fc fragment
T2 chain: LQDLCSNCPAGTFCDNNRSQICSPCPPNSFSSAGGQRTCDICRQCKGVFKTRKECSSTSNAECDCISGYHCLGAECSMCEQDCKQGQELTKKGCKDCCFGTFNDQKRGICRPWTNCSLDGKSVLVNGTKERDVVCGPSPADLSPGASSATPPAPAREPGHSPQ

[5] = target: T3, biotin-labeled human CD137 fused to human IgG1 Fc fragment (human, biotin-labeled); experiment: bead ELISA; RLU on human CD137-Fc divided by RLU on human Fc
T3 construct: also called human CD137-Fc; biotin-human CD137-Fc

[6] = target: T2, biotin-labeled cynomolgus monkey CD137 …; experiment: bead ELISA (chemiluminescence), purified IgG on biotin labeled cyno CD137-Fc on streptavidin beads
[7] = target: T3, biotin-labeled human CD137 fused to …; experiment: bead ELISA (chemiluminescence), purified IgG on biotin labeled human CD137-Fc on streptavidin beads
[8] = target: T4, biotin-labeled CD3 epsilon peptide antigen (human, also: biotin-labeled, position not given here); experiment: bead ELISA, biotin-CD3 epsilon peptide on streptavidin beads, 100 ng IgG
T4 construct: Peptide of CD3 epsilon; also called CD3 peptide
T4 peptide: QDGNEEMGGITQTPY

Signal decrease [1] [%]	ELISA signal with Free Fc 62.5 pmol [2]	ELISA signal with Free CD3e 62.5 pmol [3]	S/N ratio cyno CD137-Fc/Fc [4]	S/N ratio human CD137-Fc/Fc [5]	RLU [6] [RLU]	RLU [7] [RLU]	RLU, CD3 peptide [8] [RLU]	S/N ratio CD3 peptide/non coating [8]	Binder
0.94	184000	183000	–	–	–	–	–	–	anti-human CD137 antibody described in WO2005/035584A1 (abbreviated as B) (antibody, V domains shown, Control antibody; also called control anti-CD137 antibody) VH: QVQLQQWGAGLLKPSETLSLTCAVYGGSFSGYYWSWIRQSPEKGLEWIGEINHGGYVTYNPSLESRVTISVDTSKNQFSLKLSSVTAADTAVYYCARDYGPGNYDWYFDLWGRGTLVTVSS VL: EIVLTQSPATLSLSPGERATLSCRASQSVSSYLAWYQQKPGQAPRLLIYDASNRATGIPARFSGSGSGTDFTLTISSLEPEDFAVYYCQQRSNWPPALTFGGGTKVEIK
–	–	–	3.27	17.3	6200	32800	–	–	DADU01_3#018 (antibody, human IgG1, V domains shown, IgG: VH joined to human IgG1 CH1-Fc; also called dBBDu123) VH: QVQLVESGGGLVQPGRSLRLSCAASGFTFSNAWMHWVRQAPGKGLEWVAQIKDRANSYNAYYAPSVKGRFTISRDDSKNSIYLQMNSLKTEDTAVYYCHYVHYSAASTLLPSFGVDAWGQGTTVTVSS VL: DIVMTQSPLSLPVTPGEPASISCRSSQSLVHSNRNTYLHWYQQKPGQAPRLLIYKVSNRFSGVPDRFSGSGSGTDFTLKISRVEAEDVGVYYCGQGTQVPYTFGQGTKLEIK
93.6	155000	9970	–	–	–	–	174000	156	DADU01_3#002 (antibody, human IgG1, V domains shown, also called dBBDu124) VH: QVQLVESGGGLVQPGRSLRLSCAASGFTFSNAWMHWVRQAPGKGLEWVAQIKDKQNLYNAYYAESVKGRFTISRDDSKNSIYLQMNSLKTEDTAVYYCHYVHYASASTVLPAFGVDAWGQGTTVTVSS VL: DIVMTQSPLSLPVTPGEPASISCRSSQSLVHSNRNTYLHWYQQKPGQAPRLLIYKVSNRFSGVPDRFSGSGSGTDFTLKISRVEAEDVGVYYCGQGTQVPYTFGQGTKLEIKR
–	–	–	0.687	54.1	1210	95300	–	–	DADU01_3#001 (antibody, human IgG1, V domains shown, IgG: VH joined to human IgG1 CH1-Fc; also called dBBDu_126; dBBDu126) VH: QVQLVESGGGLVQPGRSLRLSCAASGFTFSIAWMHWVRQAPGKGLEWVAQIKDRVNAYEAYYAPSVKGRFTISRDDSKNSIYLQMNSLKTEDTAVYYCRYVHYASYYDLLGYGGVDAWGQGTTVTVSS VL: DIVMTQSPLSLPVTPGEPASISCRSSQSLVHSNRNTYLHWYQQKPGQAPRLLIYKVSNRFSGVPDRFSGSGSGTDFTLKISRVEAEDVGVYYCGQGTQVPYTFGQGTKLEIK
–	–	–	3.73	13.1	10900	38100	–	–	DXDU01_3#051 (antibody, human IgG1, V domains shown, IgG: VH joined to human IgG1 CH1-Fc; also called dBBDu127) VH: QVQLVESGGGLVQPGRSLRLSCAASGFTFSNAWMHWVRQAPGKGLEWVAQIKDRGQQYNAYYAPSVKGRFTISRDDSKNSIYLQMNSLKTEDTAVYYCHYVHYASASSVLPGYGVDAWGQGTTVTVSS VL: DIVMTQSPLSLPVTPGEPASISCRSSQSLVHSNRNTYLHWYQQKPGQAPRLLIYKVSNRFSGVPDRFSGSGSGTDFTLKISRVEAEDVGVYYCGQGTQVPYTFGQGTKLEIK
92.5	172000	12800	–	–	–	–	191000	161	DXDU01_3#019 (antibody, human IgG1, V domains shown, also called dBBDu125) VH: QVQLVESGGGLVQPGRSLRLSCAASGFTFSIAWMHWVRQAPGKGLEWVAQIKDKVNGYTAYYAESVKGRFTISRDDSKNSIYLQMNSLKTEDTAVYYCRYVHYAAYYDVLGYGGVDAWGQGTTVTVSS VL: DIVMTQSPLSLPVTPGEPASISCRSSQSLVHSNRNTYLHWYQQKPGQAPRLLIYKVSNRFSGVPDRFSGSGSGTDFTLKISRVEAEDVGVYYCGQGTQVPYTFGQGTKLEIKR
–	–	–	1.56	6.58	3350	14100	–	–	DXDU01_3#072 (antibody, human IgG1, V domains shown, IgG: VH joined to human IgG1 CH1-Fc; also called dBBDu122) VH: QVQLVESGGGLVQPGRSLRLSCAASGFTFSNAWMHWVRQAPGKGLEWVAQIKDRSQLYAAYYAPSVKGRFTISRDDSKNSIYLQMNSLKTEDTAVYYCHYVHYASASTVLGAYGVDAWGQGTTVTVSS VL: DIVMTQSPLSLPVTPGEPASISCRSSQSLVHSNRNTYLHWYQQKPGQAPRLLIYKVSNRFSGVPDRFSGSGSGTDFTLKISRVEAEDVGVYYCGQGTQVPYTFGQGTKLEIK
91.1	108000	9660	–	–	–	–	165000	141	DXDU01_3#094 (antibody, human IgG1, V domains shown, also called dBBDu121) VH: QVQLVESGGGLVQPGRSLRLSCAASGFTFSNAWMHWVRQAPGKGLEWVAQIKDKGNAYAAYYAPSVKGRFTISRDDSKNSIYLQMNSLKTEDTAVYYCHYVHYASAAGGLPGFGVDAWGQGTTVTVSS VL: DIVMTQSPLSLPVTPGEPASISCRSSQSLVHSNRNTYLHWYQQKPGQAPRLLIYKVSNRFSGVPDRFSGSGSGTDFTLKISRVEAEDVGVYYCGQGTQVPYTFGQGTKLEIKR
91.6	128000	10800	–	–	–	–	169000	145	DXDU01_3#051 (antibody, human IgG1, V domains shown, also called dBBDu127) VH: QVQLVESGGGLVQPGRSLRLSCAASGFTFSNAWMHWVRQAPGKGLEWVAQIKDRGQQYNAYYAPSVKGRFTISRDDSKNSIYLQMNSLKTEDTAVYYCHYVHYASASSVLPGYGVDAWGQGTTVTVSS VL: DIVMTQSPLSLPVTPGEPASISCRSSQSLVHSNRNTYLHWYQQKPGQAPRLLIYKVSNRFSGVPDRFSGSGSGTDFTLKISRVEAEDVGVYYCGQGTQVPYTFGQGTKLEIKR
92.3	117000	9020	–	–	–	–	182000	149	DADU01_3#018 (antibody, human IgG1, V domains shown, also called dBBDu123) VH: QVQLVESGGGLVQPGRSLRLSCAASGFTFSNAWMHWVRQAPGKGLEWVAQIKDRANSYNAYYAPSVKGRFTISRDDSKNSIYLQMNSLKTEDTAVYYCHYVHYSAASTLLPSFGVDAWGQGTTVTVSS VL: DIVMTQSPLSLPVTPGEPASISCRSSQSLVHSNRNTYLHWYQQKPGQAPRLLIYKVSNRFSGVPDRFSGSGSGTDFTLKISRVEAEDVGVYYCGQGTQVPYTFGQGTKLEIKR
–	–	–	1.56	23.8	5090	77800	–	–	DXDU01_3#019 (antibody, human IgG1, V domains shown, IgG: VH joined to human IgG1 CH1-Fc; also called dBBDu125) VH: QVQLVESGGGLVQPGRSLRLSCAASGFTFSIAWMHWVRQAPGKGLEWVAQIKDKVNGYTAYYAESVKGRFTISRDDSKNSIYLQMNSLKTEDTAVYYCRYVHYAAYYDVLGYGGVDAWGQGTTVTVSS VL: DIVMTQSPLSLPVTPGEPASISCRSSQSLVHSNRNTYLHWYQQKPGQAPRLLIYKVSNRFSGVPDRFSGSGSGTDFTLKISRVEAEDVGVYYCGQGTQVPYTFGQGTKLEIK
–	–	–	8.09	10.2	19100	24200	–	–	DXDU01_3#094 (antibody, human IgG1, V domains shown, IgG: VH joined to human IgG1 CH1-Fc; also called dBBDu121) VH: QVQLVESGGGLVQPGRSLRLSCAASGFTFSNAWMHWVRQAPGKGLEWVAQIKDKGNAYAAYYAPSVKGRFTISRDDSKNSIYLQMNSLKTEDTAVYYCHYVHYASAAGGLPGFGVDAWGQGTTVTVSS VL: DIVMTQSPLSLPVTPGEPASISCRSSQSLVHSNRNTYLHWYQQKPGQAPRLLIYKVSNRFSGVPDRFSGSGSGTDFTLKISRVEAEDVGVYYCGQGTQVPYTFGQGTKLEIK
81.3	81000	15100	–	–	–	–	198000	146	DADU01_3#001 (antibody, human IgG1, V domains shown, also called dBBDu_126; dBBDu126) VH: QVQLVESGGGLVQPGRSLRLSCAASGFTFSIAWMHWVRQAPGKGLEWVAQIKDRVNAYEAYYAPSVKGRFTISRDDSKNSIYLQMNSLKTEDTAVYYCRYVHYASYYDLLGYGGVDAWGQGTTVTVSS VL: DIVMTQSPLSLPVTPGEPASISCRSSQSLVHSNRNTYLHWYQQKPGQAPRLLIYKVSNRFSGVPDRFSGSGSGTDFTLKISRVEAEDVGVYYCGQGTQVPYTFGQGTKLEIKR
